Experiment [1] has as its target HBsAg of HBV genotype D (GenBank J02203, ayw3) (hepatitis B virus, genotype D, UniProt P03138 164-389). Briefly: flow cytometry, permeabilized transfected Hep2 cells, 5000 to 7 ng/ml. For orientation: In flow cytometry, cells or beads pass a laser one at a time.
In the next experiment the target is HBsAg P120T (hepatitis B virus, genotype D, UniProt Q913A6 175-400). Briefly: flow cytometry, permeabilized transfected Hep2 cells, 5 µg/ml.

B1: HBC34-V7 (antibody, V domains shown)
VH: ELQLVESGGGWVQPGGSQRLSCAASGRIFRSFYMSWVRQAPGKGLEWVATINQDGSEKLYVDSVKGRFTISRDNAKNSLFLQMNNLRVEDTAVYYCAAWSGNSGGMDVWGQGTTVSVSS
VL: SYELTQPPSVSVSPGQTVSIPCSGDKLGNKNVCWFQHKPGQSPVLVIYEVKYRPSGIPERFSGSNSGNTATLTISGTQAMDEAAYFCQTFDSTTVVFGGGTRLTVL
notes: also called variant 7; HMB34-V7
With B1, in experiment [1], the binding result is “binds”.

B2: HBC34 (antibody, V domains shown)
VH: ELQLVESGGGWVQPGGSQRLSCAASGRIFRSFYMSWVRQAPGKGLEWVATINQDGSEKLYVDSVKGRFTISRDNAKNSLFLQMNNLRVEDTAVYYCAAWSGNSGGMDVWGQGTTVSVSS
VL: SYELTQPPSVSVSPGQTVSIPCSGDKLGNKNVCWFQHKPGQSPVLVIYEVKYRPSGIPERFSGSNSGNTATLTISGTQAMDEAAYFCQTWDSTTVVFGGGTRLTVL
notes: also called human monoclonal antibody HBC34; WT
Regarding B2, the binding result with HBsAg P120T is “binds”.

(Values after US20190016785A1 (HUMABS BIOMED, published 2019).)
